According to article PMC4160250 (PLoS ONE, 2014):

B1: His-tagged DC-UbP (natural protein, human, UniProt Q8WUN7 1-234, looked up)
chain: MGGCVGAQHDSSGSLNENSEGTGVALGRNQPLKKEKPKWKSDYPMTDGQLRSKRDEFWDTAPAFEGRKEIWDALKAAAHAFESNDHELAQAIIDGANITLPHGALTECYDELGNRYQLPVYCLAPPINMIEEKSDIETLDIPEPPPNSGYECQLRLRLSTGKDLKLVVRSTDTVFHMKRRLHAAEGVEPGSQRWFFSGRPLTDKMKFEELKIPKDYVVQVIVSQPVQNPTPVEN
notes: DC-UbP / UBTD2, human, full-length; vector pET22b(+); 15N-labelled (M9 medium) in the NMR titrations; also called His6-DC-UbP; full-length DC-UbP; source: E. coli, purified (Ni-NTA, Superdex-75)
B2: UbP_C (C-terminal part of DC-UbP, residues 129-234), His-tagged (domain or fragment, human, UniProt Q8WUN7 129-234, looked up)
chain: MIEEKSDIETLDIPEPPPNSGYECQLRLRLSTGKDLKLVVRSTDTVFHMKRRLHAAEGVEPGSQRWFFSGRPLTDKMKFEELKIPKDYVVQVIVSQPVQNPTPVEN
notes: 15N-labelled where it is the observed protein of an NMR titration, unlabelled where it is titrated into 15N-UBA1; also called UbL domain of DC-UbP; UbL; source: E. coli, purified (Ni-NTA, Superdex-75)
B3: GST-fused UFD domain of UbE1 (residues 950-1058) (domain or fragment)
chain: not shown
notes: UbE1, residues 950-1058 (C-terminal Ub-fold domain, UFD), from the UbE1 that was cloned from a mouse cDNA library; vector pGEX-4T-3; also called GST-UFD; C-terminal Ub-fold domain; source: E. coli, purified
B4: UbE1, recombinant, purified (enzyme, mouse, UniProt Q02053 1-1058, looked up)
chain: MSSSPLSKKRRVSGPDPKPGSNCSPAQSALSEVSSVPTNGMAKNGSEADIDESLYSRQLYVLGHEAMKMLQTSSVLVSGLRGLGVEIAKNIILGGVKAVTLHDQGTTQWADLSSQFYLREEDIGKNRAEVSQPRLAELNSYVPVTAYTGPLVEDFLSSFQVVVLTNSPLEAQLRVGEFCHSRGIKLVVADTRGLFGQLFCDFGEEMVLTDSNGEQPLSAMVSMVTKDNPGVVTCLDEARHGFETGDFVSFSEVQGMIQLNGCQPMEIKVLGPYTFSICDTSNFSDYIRGGIVSQVKVPKKISFKSLPASLVEPDFVMTDFAKYSRPAQLHIGFQALHQFCALHNQPPRPRNEEDATELVGLAQAVNARSPPSVKQNSLDEDLIRKLAYVAAGDLAPINAFIGGLAAQEVMKACSGKFMPIMQWLYFDALECLPEDKEALTEEKCLPRQNRYDGQVAVFGSDFQEKLSKQKYFLVGAGAIGCELLKNFAMIGLGCGEGGEVVVTDMDTIEKSNLNRQFLFRPWDVTKLKSDTAAAAVRQMNPYIQVTSHQNRVGPDTERIYDDDFFQNLDGVANALDNIDARMYMDRRCVYYRKPLLESGTLGTKGNVQVVIPFLTESYSSSQDPPEKSIPICTLKNFPNAIEHTLQWARDEFEGLFKQPAENVNQYLTDSKFVERTLRLAGTQPLEVLEAVQRSLVLQRPQTWGDCVTWACHHWHTQYCNNIRQLLHNFPPDQLTSSGAPFWSGPKRCPHPLTFDVNNTLHLDYVMAAANLFAQTYGLTGSQDRAAVASLLQSVQVPEFTPKSGVKIHVSDQELQSANASVDDSRLEELKATLPSPDKLPGFKMYPIDFEKDDDSNFHMDFIVAASNLRAENYDISPADRHKSKLIAGKIIPAIATTTAAVVGLVCLELYKVVQGHQQLDSYKNGFLNLALPFFGFSEPLAAPRHQYYNQEWTLWDRFEVQGLQPNGEEMTLKQFLDYFKTEHKLEITMLSQGVSMLYSFFMPAAKLKERLDQPMTEIVSRVSKRKLGRHVRALVLELCCNDESGEDVEVPYVRYTIR
notes: also called purified UbE1; source: E. coli (vector pET28a), purified

Experiments:
Details in all cases: both partners purified
[1] = target: B4; assay: NMR titration; 15N-labelled DC-UbP (100 uM) titrated stepwise with unlabelled USP5, UbE1, FH or SCCH; 1H-15N HSQC, 20 mM phosphate, 50 mM NaCl, pH 6.5, 298 K
[2] = target: B3; assay: NMR titration; 15N-labelled UbP_N or UbP_C titrated with GST-UFD at a molar ratio of 1:3; peak intensity changes
His-tagged DC-UbP [3] = target: B1; assay: NMR titration; 15N-labelled DC-UbP (20 uM in Fig. S4C) titrated with GST-UFD, up to 5:1; relative peak intensities
His-tagged DC-UbP [4] = target: B1; assay: NMR titration; 15N-labelled DC-UbP (100 uM) titrated stepwise with unlabelled USP5, UbE1, FH or SCCH; 1H-15N HSQC, 20 mM phosphate, 50 mM NaCl, pH 6.5, 298 K

Binder: B1
binding result [1]: binds

Binder: B2
binding result [2]: binds

Binder: B3
mean relative peak intensity of the UBD domain of DC-UbP at 5:1 molar ratio (His-tagged DC-UbP [3]): 0.69 | mean relative peak intensity of the UbL domain of DC-UbP at 5:1 molar ratio (His-tagged DC-UbP [3]): 0.44

Binder: B4
mean relative peak intensity of the UBD domain of DC-UbP at 1:1 molar ratio (free DC-UbP = 1) (His-tagged DC-UbP [4]): 0.54 | mean relative peak intensity of the UbL domain of DC-UbP at 1:1 molar ratio (free DC-UbP = 1) (His-tagged DC-UbP [4]): 0.39
